# This sample holds only a part of the variants without activity.
# B1: TPR 5TU (parent)
# chain: GGAUCUUCUCGAUCUAACAAAAAAGACAAAUCUGCCACAAAGCUUGAGAGCAUCUUCGGAUGCAGAGGCGGCAGCCUUCGGUGGCGCGAUAGCGCCAACGUUCUCAACUAUGACACGCAAAACGCGUGCUCCGUUGAAUGGAGUUUAUCAUG
# Variants of: B1
# Assay: polymerase ribozyme fitness, log enrichment relative to wild type (log ratio); higher = more active; in vitro selection for triplet polymerase activity
# How it was run: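 Mutant libraries of each subunit of a heterodimeric triplet polymerase ribozyme were built by PCR and transcribed. Each library went through one round of in vitro selection in triplicate: annealing with biotinylated primer, partner subunit and triplets, frozen incubation at −7 °C, gel excision of extended constructs, streptavidin-bead capture and RT-PCR. Input and output libraries were Illumina-sequenced; only genotypes with ≥10 input reads and ≥1 read per output were kept. Fitness is log2(genotype enrichment/wild-type enrichment), using inverse-variance-weighted replicate averages.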
row,Variant,polymerase ribozyme fitness (log ratio)
1,C14A A17C A41C C96U A115U G141A,≤ -4.2
2,C14A A16U A49G G50A C57A A60G C95G U101C A110G,≤ -4.2
3,U13A A20U A28C C93U G136C A137U,≤ -4.2
4,U13C A49C A52U G71A A113U,≤ -4.2
5,C14A A19C C93U C125A,-3.52
6,U13A G34U G94A U102G,≤ -4.2
7,U13G A52G,-1.06
8,U13G A47C G88C A91U C105U,≤ -4.2
9,C14A A23G A26U C43U C54U C57A C96G G143A,≤ -4.2
10,A12U C76G C85U C103A G126C U145G,≤ -4.2
11,C14A A29C C96G A150U,≤ -4.2
12,U13C U56G A115G,-2.32
13,A12U G84C A142G,-3.93
14,C14A A150G,-2.78
15,U13C A120G U130A,-3.95
16,U13A C76A U148G,≤ -4.2
17,U13G C38A C93G C116G A122G,≤ -4.2
18,U13G C35U C72U C96G C105U G133C,≤ -4.2
19,U13A G62A A142G,-2.22
20,U13G G42A G50U C76A G86C C132A,≤ -4.2
21,U13C A26C A52C,-3.55

row,Variant,polymerase ribozyme fitness (log ratio)
1,U13G A41C C96U A107U C131A G133A U146C,≤ -4.2
2,U13A C57U A73C C96G,≤ -4.2
3,A12U G42A C85U C99G,≤ -4.2
4,U13A A73G G84A,-0.387
5,U13G C103A,-2.97
6,C14A C27G C32G U77C G84A,≤ -4.2
7,U13C C125A G136C U145C U146C,-3.59
8,U13A A20U U77A,≤ -4.2
9,A12U C87A U90C A113G C131U,≤ -4.2
10,C14A A26U G46A C85U C105A A113G C114A G128A A147G,≤ -4.2
11,A12U G92A A98G C125G G128U,≤ -4.2
12,U13A C18G,-0.831
13,C14A A28U G68U G92C C125U A137C A150C,≤ -4.2
14,A12U C87U A119U,-1.23
15,A12U C57G G65A,-3.18
16,U13A C105A A107C U134A,≤ -4.2
17,U13G A17U A21G A22G G50C G59A G70C C72U C125G,≤ -4.2
18,U13C A16U,-0.079
19,U13A G46U G59A A91G C95U G117A,≤ -4.2
20,C14A A20C C27G,≤ -4.2
21,U13G A28U A64C G68A C79U,≤ -4.2

row,Variant,polymerase ribozyme fitness (log ratio)
1,C14A A66U G68A C72G G92U,≤ -4.2
2,U13C C27U G50C G92C,-4.02
3,C14A A49G C54U G71A U77C G86U G143A,≤ -4.2
4,C14A C35G G59C A64C A73G G141U,≤ -4.2
5,U13G C85U C99U G128C C132U,≤ -4.2
6,C14A A19U U56G G86U C116G C125U G133A G143C,≤ -4.2
7,U13A G84A G136U,-2.59
8,A12U U55A G59U A60G G94A,-0.00322
9,U13A A52G U82A,-0.721
10,U13C G59C U61G C79U G84A C132A,-4.17
11,C14A A39C G70A U130G,≤ -4.2
12,U13G G46C C54U G92U,-3.24
13,U13A C69A A120C,-2.74
14,A12U C93U,-1.13
15,A12U C93A,-1.26
16,A12U U13A A52C C87A G94U U134A A138U,≤ -4.2
17,C14A A16U A19U A52G G68A C85G U151G,≤ -4.2
18,A12U U56G A89G C93A A113G,-3.89
19,U13G A28G U53A A64U G141U U145G G152A,≤ -4.2
20,U13G G58C G62U U82A G86U U127C U146G,≤ -4.2
21,U13C A16G C18A C35A C87U,≤ -4.2

row,Variant,polymerase ribozyme fitness (log ratio)
1,A12U U31C C32U A40U C57G A73G C75A G88A G152A,≤ -4.2
2,U13G G141C,-1.88
3,U13C U61G G84A A91G,-3.86
4,C14A A23C U56A C75G U77A C93U C95G U102C,≤ -4.2
5,C14A C27G A91C A115G,≤ -4.2
6,U13G U56A G86U C131U,-4.16
7,U13G C96U A97U A137U,≤ -4.2
8,U13A U55A A89C G128U,-3.92
9,U13A C85U U135A,-1.44
10,U13G A20C U55G U90G C95G C105A C116G G124A,≤ -4.2
11,U13G A24C C35A A49U C76G A91C,≤ -4.2
12,U13A A39U C54G C79U G81U G94U U139C G140U,≤ -4.2
13,A12U C87U A97U,-0.917
14,A12U C87A C103G U135G,≤ -4.2
15,U13C A91U A120U,-3.86
16,C14A A52G U55G C99U,-3.48
17,C14A A20G C38A A39G C54U A91C A106U G124C,≤ -4.2
18,U13G G92C,-2.36
19,U13G U56A,-0.285
20,A12U G141C,-0.54
21,U13C U104G,-1.57
